Measured values as given in patent publication US20170304437A1 (ALLIGATOR BIOSCIENCE, published 2017).
Numbering of substitutions follows the chain as printed. One block for each binder: values may come before it.

Tests used:
CD40-Fc (R&D #1493-CD) = target: T1, CD40-Fc (R&D #1493-CD) (human, UniProt P25942 21-193); assay: SPR (Biacore 3000), CD40-Fc immobilised, control antibody injected
T1 construct: Bought reagent immobilised on the Biacore chip; also called human CD40; not shown: Fc part of the bought fusion
T1 sequence (P25942 21-193 limits assumed): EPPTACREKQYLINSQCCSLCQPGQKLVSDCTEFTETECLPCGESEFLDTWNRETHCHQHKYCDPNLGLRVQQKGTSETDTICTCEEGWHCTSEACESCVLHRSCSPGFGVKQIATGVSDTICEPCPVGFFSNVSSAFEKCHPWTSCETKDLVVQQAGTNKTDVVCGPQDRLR
Description: CD40-Fc (R&D #1493-CD) was immobilized to the BIAcore sensorship, CMS, using conventional amine coupling. 0.5 uM Bispecific construct (957/530) was injected over immobilized CD40 for 3 minutes and the dissociation was followed for 3 minutes. 2.17 uM CTLA4-Fc (Orencia, Bristol-Mayers Squibb) was injected over the CD40-Bispecific complex for 3 minutes and the dissociation phase was followed for 3 minutes. The chip was finally regenerated using 10 mM Glycine, pH 1.7. A Biacore 3000 instrument was used according to the manufacturer's protocols.

[1] = target: T2, human CTLA4-Fc (Fitzgerald #30R-CD152) (human, UniProt P16410 38-152); assay: binding ELISA, CTLA4-Fc coated, sample titrated, anti-human IgG Fc-HRP, chemiluminescence
T2 construct: Bought reagent; also called biotinylated-CTLA4; human CTLA-4 (Fitzgerald); not shown: Fc part of the bought fusion
T2 sequence (P16410 38-152 limits assumed): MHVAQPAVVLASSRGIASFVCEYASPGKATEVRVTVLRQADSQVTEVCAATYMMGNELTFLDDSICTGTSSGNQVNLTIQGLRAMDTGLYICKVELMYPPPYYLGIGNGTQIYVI
Description: The plates were washed (Wash buffer: PBS+0.05% Tween 20 (PBST) Medicago #09-9410-100) and then blocked in PBST+3% BSA (Merck, #1.12018.0100). […] The samples were incubated for 1 h at room temperature and then washed. Detection antibody, goat-anti-human IgG Fcγ-HRP (Jackson, #109-035-098) was added and the plates were subsequently developed using SuperSignal Pico Chemiluminescent substrate (Thermo #37069) and detected with Envision reader (Perkin Elmer).

[2] = target: T3, CTLA4-Fc (Orencia, Bristol-Mayers Squibb) (human, UniProt P16410 38-152); assay: dual ELISA: CD40-Fc coated, antibody at 0.2 ug/ml captured, biotinylated CTLA4-Fc titrated, streptavidin-HRP
T3 construct: Commercial drug Orencia; Biotinylated in the dual ELISA; also called soluble CTLA-4; human CTLA-4; not shown: Fc part of Orencia
T3 sequence (P16410 38-152 limits assumed): as above
Description: In short, 96-well flat bottom plate high binding plates (Greiner #655074) were coated with CD40-Fc (Ancell # 504-820) by incubating overnight at 4° C. The plates were washed (Wash buffer: PBS+0.05% Tween 20 (PBST) Medicago #09-9410-100) and then blocked in PBST+3% BSA (Merck, #1.12018.0100). […] The samples were incubated for 1 h at room temperature and then washed.

[3] = target: T2, human CTLA4-Fc (Fitzgerald #30R-CD152); assay: Biacore SPR, CD28/CTLA-4 Kd ratio against that of wild type
Description: The CD86 mutant molecules and controls (serially diluted 1/2 100-1.5 nM) were analyzed for binding in HBs-P (GE, BR-1003-69) at a flow rate […]. The association was followed for 3 minutes and the dissociation for 10 minutes. Regeneration was performed twice using 5 mM NaOH for 30 seconds. The kinetic parameters and the affinity constants were calculated using BlAevaluation 4.1 software.

[4] = target: T2, human CTLA4-Fc (Fitzgerald #30R-CD152); assay: binding ELISA, CD28/CTLA-4 EC50 ratio against that of wild type
Description: The plates were washed (Wash buffer: PBS+0.05% Tween 20 (PBST) Medicago #09-9410-100) and then blocked in PBST+3% BSA (Merck, #1.12018.0100).
The plates were washed again and sample or controls (serially diluted 1/5 from 200-0.001 μg/ml) were added to the wells. The samples were incubated for 1 h at room temperature and then washed. Detection antibody, goat-anti-human IgG Fcγ-HRP (Jackson, #109-035-098) was added and the plates were subsequently developed using SuperSignal Pico Chemiluminescent substrate (Thermo #37069) and detected with an Envision reader

[5] = target: T2, human CTLA4-Fc (Fitzgerald #30R-CD152); assay: inhibition ELISA: sample titrated, pre-incubated with biotinylated CTLA4-Fc, mixture added to coated wildtype CD86-Fc (competitor), streptavidin-HRP [lower panel]
Description: (§1) The plates were washed (Wash buffer: PBS+0.05% Tween 20 (PBST) Medicago #09-9410-100) and then blocked in PBST+3% BSA (Merck, #1.12018.0100). The sample (CD86 mutant or wild type protein; serially diluted 1/4 from 30000 to 0.3 ng/ml) was incubated with biotinylated-CTLA4 (Fitzgerald #30R-CD152) in room temperature 1 h, the mixture was then added to the blocked wells in the ELISA plate. Detection was performed with Streptavidin-HRP (Pierce #21126) and the plates were subsequently developed using SuperSignal Pico Chemiluminescent substrate (Thermo #37069) and detected with Envision reader (Perkin Elmer).

[6] = target: T2, human CTLA4-Fc (Fitzgerald #30R-CD152); assay: binding ELISA, coated CTLA4-Fc; high end tied to 1040 by Table 7
Description: (§2) The plates were washed (Wash buffer: PBS+0.05% Tween 20 (PBST) Medicago #09-9410-100) and then blocked in PBST+3% BSA (Merck, #1.12018.0100). The plates were washed again and sample or controls (serially diluted 1/3 from […]) were added to the wells. The samples were incubated for 1 h at room temperature and then washed. Detection antibody, goat-anti-human IgG Fγy-HRP (Jackson, #109-035-098) was added and the plates were subsequently developed using SuperSignal Pico Chemiluminescent substrate (Thermo #37069) and detected with an Envision reader (Perkin Elmer).

[7] = target: T2, human CTLA4-Fc (Fitzgerald #30R-CD152); assay: binding ELISA, CTLA4-Fc coated, sample titrated, anti-human IgG Fc-HRP, chemiluminescence, data normalised to % [upper panel]
Description: as §2

[8] = target: T4, CD28-Fc (provided by Simon Davis, Oxford University) (human, UniProt P10747 19-152, limits assumed); assay: binding ELISA, coated CD28-Fc
T4 construct: Gift reagent; not shown: Fc part
Description: as §2

[9] = target: T2, human CTLA4-Fc (Fitzgerald #30R-CD152); assay: inhibition ELISA; best molecule is 1040 by Table 8
Description: as §1

[10] = target: T2, human CTLA4-Fc (Fitzgerald #30R-CD152); assay: binding ELISA, coated CTLA4-Fc; low end tied to 1042 by Table 7
Description: as §2

B2: CD86 mutant clone 904, gamma2/gamma4 Fc fusion (Fc fusion)
chain: LKIQAYFNETADLPCQFANSQNQSLSELIVFWQDQENLVLNEVYLGKERFDAVDSKYMGRTSFDSDSWTLRLHNLQIKDKGIYQCIIHHKKPSGMVKIHQMDSELSVLA
notes: Fusion to gamma2/gamma4 Fc, HEK293; not shown: gamma2/gamma4 Fc
- fold of Kd binding ratio over wild type protein CD86 [3]: > 4 fold

B3: CD86 mutant clone 907, gamma2/gamma4 Fc fusion (Fc fusion)
chain: B2 chain with I29V, R49K, A52S, D54H, I82L, S93T, V96I, Q100E, D102N
notes: as for B2
- fold of EC50 binding ratio over wild-type protein CD86 [4]: ~10 fold

B4: CD86 mutant clone 1040, gamma2/gamma4 fusion (Fc fusion)
chain: APLKIQAYFNETADLPCQFANSQNLSLSELVVFWQDQENLVLNEVYLGKERFDSVDSKYMGRTSFDSDSWTLRLHNLQIKDKGRYQCIIHHKKPTGMINIHQMNSELSVLA
notes: Expressed as gamma2/gamma4 fusion, protein A purified; not shown: gamma2/gamma4 Fc
- IC50 (read off the curve) [5]: ~0.05 mg/L
- fold improvement of EC50 over wild type [6]: 2 to 67 fold
- EC50 (read off the curve) [7]: ~0.009 mg/L
- binding result [8]: no binding
- fold improvement of IC50 over wild type [9]: > 100 fold

More lines, main results first:

- binding result (CD40-Fc (R&D #1493-CD)): binds
B1: Antibody A2-54 (monospecific anti-CD40) (antibody, human IgG1, kappa, V domains shown)
VH: EVQLLESGGGLVQPGGSLRLSCAASGFTFSDYYMSWVRQAPGKGLEWISSISSNGIYIYYADSLKGRFTISRDNSKNTLYLQMNSLRAEDTAVYYCARAPVDYSNPSGMDVWGQGTLVTVSS
VL: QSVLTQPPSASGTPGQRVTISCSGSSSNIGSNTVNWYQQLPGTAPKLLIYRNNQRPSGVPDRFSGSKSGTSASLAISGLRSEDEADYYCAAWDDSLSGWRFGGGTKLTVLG
notes: VH-gamma1 / VL-kappa; also called control Ab
- binding result [1]: no binding (tested: log 1.2 µg/mL (about 16 µg/mL))
- binding result [2]: no binding (tested: 20 µg/mL of hCTLA-4-bio)

- fold improvement of EC50 over wild type [10]: 2 to 67 fold
- EC50 (read off the curve) [7]: ~0.3 mg/L
- binding result [8]: no binding
B5: CD86 mutant clone 1042, gamma2/gamma4 fusion (Fc fusion)
chain: B4 chain with R51I, D56S, R84I, T95S, I98V, N99K, N104D
notes: as for B4
